System: Abp1 PPIs
Assay: DHFR-PCA of Abp1 SH3-swapped baits (Fig. 2B-D, S2C, S2F);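 for Protein-protein interaction distance between Abp1 SH3-swapped baits, to ABP1: Euclidean distance between DHFR-PCA score profiles of the baits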;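 for Protein-protein interaction distance between Abp1 SH3-swapped baits, to BEM1-2: Euclidean distance between DHFR-PCA score profiles of the baits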;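 for Protein-protein interaction distance between Abp1 SH3-swapped baits, to BOI1: Euclidean distance between DHFR-PCA score profiles of the baits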;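 for Protein-protein interaction distance between Abp1 SH3-swapped baits, to BZZ1-1: Euclidean distance between DHFR-PCA score profiles of the baits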
Assay type: cell-based, Saccharomyces cerevisiae
How it was run: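 Interactions were scored by DHFR protein-fragment complementation. DHFR F[1,2]-tagged Abp1 strains, whose SH3 was swapped for yeast or human ortholog domains, were crossed on YPD at 30 °C for 48 h with a 1536-format array of 575 prey-DHFR F[3] strains and 40 negatives, giving four replicates per pair. PCA selection lasted 4 days after double diploid selection.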

[1] = number of PPIs, difference, Abp1 SH3-swapped with the listed SH3, Fig2D,S2F

B1: BOI1 (protein, UniProt P38041 1-980, looked up)
BEM1-interacting protein 1: MSLEGNTLGKGAKSFPLYIAVNQYSKRMEDELNMKPGDKIKVITDDGEYNDGWYYGRNLRTKEEGLYPAVFTKRIAIEKPENLHKSPTQESGNSGVKYGNLNDSASNIGKVSSHQQENRYTSLKSTMSDIDKALEELRSGSVEQEVSKSPTRVPEVSTPQLQDEQTLIQEKTRNEENTTHDSLFSSTADLNLSSESLKNISKSNISTKSLEPSSESVRQLDLKMAKSWSPEEVTDYFSLVGFDQSTCNKFKEHQVSGKILLELELEHLKELEINSFGIRFQIFKEIRNIKSAIDSSSNKLDADYSTFAFENQAAQLMPAATVNRDEIQQQISSKCNKLSSESSDRKSSSVTTELQRPSSVVVNPNFKLHDPAEQILDMTEVPNLFADKDIFESPGRAPKPPSYPSPVQPPQSPSFNNRYTNNNARFPPQTTYPPKNKNPTVYSNGLIPNSSTSSDNSTGKFKFPAMNGHDSNSRKTTLTSATIPSINTVNTDESLPAISNISSNATSHHPNRNSVVYNNHKRTESGSSFVDLFNRISMLSPVKSSFDEEETKQPSKASRAVFDSARRKSSYGHSRDASLSEMKKHRRNSSILSFFSSKSQSNPTSPTKQTFTIDPAKMTSHSRSQSNSYSHARSQSYSHSRKHSLVTSPLKTSLSPINSKSNIALAHSETPTSSNNKEAVSQPSEGKHKHKHKHKSKHKHKNSSSKDGSSEEKSKKKLFSSTKESFVGSKEFKRSPSELTQKSTKSILPRSNAKKQQTSAFTEGIRSITAKESMQTADCSGWMSKKGTGAMGTWKQRFFTLHGTRLSYFTNTNDEKERGLIDITAHRVLPASDDDRLISLYAASLGKGKYCFKLVPPQPGSKKGLTFTEPRVHYFAVENKSEMKAWLSAIIKATIDIDTSVPVISSYATPTIPLSKAQTLLEEARLQTQLRDAEEEEGRDQFGWDDTQNKRNSNYPIEQDQFETSDYLESSAFEYPGGRL
In the case of B1, the “Protein-protein interaction distance between Abp1 SH3-swapped baits, to ABP1” value (Abp1 bait with swapped SH3, distance to bait with ABP1 SH3, sheet Fig2C) is reported as 11.59, the “Protein-protein interaction distance between Abp1 SH3-swapped baits, to BBC1” value (distance to Abp1 bait with BBC1 SH3, sheet Fig2C) is reported as 9.448 and the “Protein-protein interaction distance between Abp1 SH3-swapped baits, to BEM1-1” value (distance to Abp1 bait with BEM1-1 SH3, sheet Fig2C) is reported as 8.19. For the same molecule, the “Protein-protein interaction distance between Abp1 SH3-swapped baits, to BEM1-2” value (distance to Abp1 bait with BEM1-2 SH3, sheet Fig2C) was 28.06, the “Protein-protein interaction distance between Abp1 SH3-swapped baits, to BOI1” value (distance to Abp1 bait with BOI1 SH3, sheet Fig2C) was 0.00 and the “Protein-protein interaction distance between Abp1 SH3-swapped baits, to BOI2” value (distance to Abp1 bait with BOI2 SH3, sheet Fig2C) was 6.71. The “Protein-protein interaction distance between Abp1 SH3-swapped baits, to BUD14” value (distance to Abp1 bait with BUD14 SH3, sheet Fig2C) was 11.14, the “Protein-protein interaction distance between Abp1 SH3-swapped baits, to BZZ1-1” value (distance to Abp1 bait with BZZ1-1 SH3, sheet Fig2C) was 8.863 and the “Protein-protein interaction distance between Abp1 SH3-swapped baits, to BZZ1-2” value (distance to Abp1 bait with BZZ1-2 SH3, sheet Fig2C) was 6.782. The “Protein-protein interaction distance between Abp1 SH3-swapped baits, to CDC25” value (distance to Abp1 bait with CDC25 SH3, sheet Fig2C) was 21, the “Protein-protein interaction distance between Abp1 SH3-swapped baits, to CTTN” value (distance to Abp1 bait with CTTN SH3, sheet Fig2C) was 8.701 and the “Protein-protein interaction distance between Abp1 SH3-swapped baits, to CYK3” value (distance to Abp1 bait with CYK3 SH3, sheet Fig2C) was 21.68. For the same molecule, the “Protein-protein interaction distance between Abp1 SH3-swapped baits, to DBNL” value (distance to Abp1 bait with DBNL SH3, sheet Fig2C) was 8.616, the “Protein-protein interaction distance between Abp1 SH3-swapped baits, to FUS1” value (distance to Abp1 bait with FUS1 SH3, sheet Fig2C) was 12.53 and the “Protein-protein interaction distance between Abp1 SH3-swapped baits, to HCLS1” value (distance to Abp1 bait with HCLS1 SH3, sheet Fig2C) was 12.36. The “Protein-protein interaction distance between Abp1 SH3-swapped baits, to HOF1” value (distance to Abp1 bait with HOF1 SH3, sheet Fig2C) was 26.74, the “Protein-protein interaction distance between Abp1 SH3-swapped baits, to HSE1” value (distance to Abp1 bait with HSE1 SH3, sheet Fig2C) was 7.847 and the “Protein-protein interaction distance between Abp1 SH3-swapped baits, to LSB1” value (distance to Abp1 bait with LSB1 SH3, sheet Fig2C) was 16.11. For the same molecule, the “Protein-protein interaction distance between Abp1 SH3-swapped baits, to LSB3” value (distance to Abp1 bait with LSB3 SH3, sheet Fig2C) was 16.12, the “Protein-protein interaction distance between Abp1 SH3-swapped baits, to MYO3” value (distance to Abp1 bait with MYO3 SH3, sheet Fig2C) was 14.63 and the “Protein-protein interaction distance between Abp1 SH3-swapped baits, to MYO5” value (distance to Abp1 bait with MYO5 SH3, sheet Fig2C) was 14.33. For the same molecule, the “Protein-protein interaction distance between Abp1 SH3-swapped baits, to NBP2” value (distance to Abp1 bait with NBP2 SH3, sheet Fig2C) was 10.48, the “Protein-protein interaction distance between Abp1 SH3-swapped baits, to PEX13” value (distance to Abp1 bait with PEX13 SH3, sheet Fig2C) was 13.22 and the “Protein-protein interaction distance between Abp1 SH3-swapped baits, to PIN3” value (distance to Abp1 bait with PIN3 SH3, sheet Fig2C) was 13.58. For the same molecule, the “Protein-protein interaction distance between Abp1 SH3-swapped baits, to RVS167” value (distance to Abp1 bait with RVS167 SH3, sheet Fig2C) was 11.58, the “Protein-protein interaction distance between Abp1 SH3-swapped baits, to SDC25” value (distance to Abp1 bait with SDC25 SH3, sheet Fig2C) was 29.16 and the “Protein-protein interaction distance between Abp1 SH3-swapped baits, to SHO1” value (distance to Abp1 bait with SHO1 SH3, sheet Fig2C) was 8.152. The “Protein-protein interaction distance between Abp1 SH3-swapped baits, to SLA1-1” value (distance to Abp1 bait with SLA1-1 SH3, sheet Fig2C) was 23.94, the “Protein-protein interaction distance between Abp1 SH3-swapped baits, to SLA1-2” value (distance to Abp1 bait with SLA1-2 SH3, sheet Fig2C) was 13.51 and the “Protein-protein interaction distance between Abp1 SH3-swapped baits, to SLA1-3” value (distance to Abp1 bait with SLA1-3 SH3, sheet Fig2C) was 15.75. For the same molecule, the “Protein-protein interaction distance between Abp1 SH3-swapped baits, to YSC84” value (distance to Abp1 bait with YSC84 SH3, sheet Fig2C) was 16.61, the “PPIs gained by Abp1 - SH3-dependent PPIs gained by Abp1” value [1] was 1 and the “SH3-dependent PPIs - SH3-dependent PPIs gained by Abp1” value [1] was 2. For the same molecule, the “SH3-dependent PPIs gained by Abp1” value (number of PPIs, Abp1 SH3-swapped with the listed SH3, DHFR-PCA, Fig2D,S2F) was 1.

B2: WT (protein, UniProt P15891 2-592, looked up)
Actin-binding protein: ALEPIDYTTHSREIDAEYLKIVRGSDPDTTWLIISPNAKKEYEPESTGSSFHDFLQLFDETKVQYGLARVSPPGSDVEKIIIIGWCPDSAPLKTRASFAANFAAVANNLFKGYHVQVTARDEDDLDENELLMKISNAAGARYSIQTSSKQQGKASTPPVKKSFTPSKSPAPVSKKEPVKTPSPAPAAKISSRVNDNNDDDDWNEPELKERDFDQAPLKPNQSSYKPIGKIDLQKVIAEEKAKEDPRLVQKPTAAGSKIDPSSDIANLKNESKLKRDSEFNSFLGTTKPPSMTESSLKNDDDKVIKGFRNEKSPAQLWAERKAKQNSGNAETKAEAPKPEVPEDEPEGEPDVKDLKSKFEGLAASEKEEEEMENKFAPPPKKSEPTIISPKPFSKPQEPVKAEEAEQPKTDYKKIGNPLPGMHIEADNEEEPEENDDDWDDDEDEAAQPPLPSRNVASGAPVQKEEPEQEEIAPSLPSRNSIPAPKQEEAPEQAPEEEIEEEAEEAAPQLPSRSSAAPPPPPRRATPEKKPKENPWATAEYDYDAAEDNELTFVENDKIINIEFVDDDWWLGELEKDGSKGLFPSNYVSLGN
With B2 the “Interactions in Abp1” value (number of interactions of Abp1 carrying the named SH3, sheet FigS2A-B) was 80.

Source: publication PMC7954794, “Protein context shapes the specificity of SH3 domain-mediated interactions in vivo” (Nature Communications, 2021)
